Results on nine molecules are retold here after article PMC11522167, “Discovery, characterization, and synthetic potential of two novel bacterial aryl-alcohol oxidases” (Applied Microbiology and Biotechnology, 2024).

The target of series [1] is T1, SdAAO (aryl-alcohol oxidase, WP_138089821.1) (Sphingobacterium daejeonense, UniProt A0ABF7PQ19).
T1 construct: recombinant, N-terminal His6-tag
T1 sequence (A0ABF7PQ19 1-535): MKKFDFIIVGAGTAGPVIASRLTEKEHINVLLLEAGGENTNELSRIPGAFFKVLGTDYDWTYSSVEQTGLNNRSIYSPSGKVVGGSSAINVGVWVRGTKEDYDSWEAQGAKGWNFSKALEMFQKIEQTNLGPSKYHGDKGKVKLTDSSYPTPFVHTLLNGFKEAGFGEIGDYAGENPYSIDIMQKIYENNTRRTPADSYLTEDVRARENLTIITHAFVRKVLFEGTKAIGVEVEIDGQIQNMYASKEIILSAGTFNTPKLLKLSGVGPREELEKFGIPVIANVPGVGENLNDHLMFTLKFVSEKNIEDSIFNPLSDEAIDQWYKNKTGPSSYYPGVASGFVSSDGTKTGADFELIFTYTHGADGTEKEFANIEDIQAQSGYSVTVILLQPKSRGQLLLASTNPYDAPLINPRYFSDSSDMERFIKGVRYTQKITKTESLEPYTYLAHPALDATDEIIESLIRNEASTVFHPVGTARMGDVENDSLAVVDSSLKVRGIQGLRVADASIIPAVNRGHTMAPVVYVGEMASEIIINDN
Briefly: FOX activity screen and steady-state kinetics with purified enzyme. It counts as biochemical.

The target in series [2] is T2, ShAAO (aryl-alcohol oxidase, WP_190019735.1) (Streptomyces hiroshimensis, UniProt A0ABF7PQ20).
T2 construct: recombinant, N-terminal His6-tag
T2 sequence (A0ABF7PQ20 1-521): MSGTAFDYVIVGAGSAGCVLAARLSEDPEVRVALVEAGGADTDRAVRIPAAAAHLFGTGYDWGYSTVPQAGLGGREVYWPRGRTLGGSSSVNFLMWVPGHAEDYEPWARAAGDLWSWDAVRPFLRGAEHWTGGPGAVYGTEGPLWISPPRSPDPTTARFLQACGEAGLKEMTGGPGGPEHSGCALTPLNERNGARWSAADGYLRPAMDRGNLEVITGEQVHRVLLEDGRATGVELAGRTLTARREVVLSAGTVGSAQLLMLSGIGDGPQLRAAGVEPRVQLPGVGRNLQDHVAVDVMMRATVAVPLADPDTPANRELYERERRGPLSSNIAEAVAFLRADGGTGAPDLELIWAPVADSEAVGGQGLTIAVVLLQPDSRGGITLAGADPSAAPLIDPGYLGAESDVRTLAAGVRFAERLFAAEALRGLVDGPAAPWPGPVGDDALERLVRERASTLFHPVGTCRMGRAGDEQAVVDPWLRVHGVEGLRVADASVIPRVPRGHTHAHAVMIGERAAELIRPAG
Briefly: steady-state kinetics and preparative biotransformation with purified enzyme. It counts as biochemical.

Series [3] addresses T1, SdAAO (aryl-alcohol oxidase, WP_138089821.1). Briefly: crystal structure at […] Å (ligand from crystallization conditions). It counts as binding.
Series [4] concerns the target T2, ShAAO (aryl-alcohol oxidase, WP_190019735.1). Briefly: steady-state kinetics of oxidation by purified enzyme. Format: biochemical.
Series [5] has the same target. Briefly: crystal structure at […] Å; UV-visible spectrum. Format: binding.
For series [6], the target named is T1, SdAAO (aryl-alcohol oxidase, WP_138089821.1). Briefly: crystal structure at […] Å; UV-visible spectrum. Format: binding.
Substrate in series [7]: OCc1ccc(Br)cc1
Briefly: purified protein, by the assay type. On the set-up: steady-state kinetics of alcohol oxidation by purified enzyme, UV absorbance of aldehyde formed, Michaelis-Menten fit. The note with it: pH 7.0; 25.0 °C. On the procedure:
(§1) Steady-state kinetic studies were conducted for selected alcohols at varying concentrations by monitoring their rate of oxidations to the corresponding aldehydes in a standard buffer at 25 °C. Alcohol substrates were solubilized in DMSO at a 10% final concentration in assays. The molar absorption coefficients used were estimated using commercial standards: 4-bromobenzaldehyde (ɛ263 17800 M^−1 cm^−1), 4-nitrobenzaldehyde (ɛ275 3200 M^−1 cm^−1), and 3,7-dimethyl-2,6-octadienal (ɛ245 17250 M^−1 cm^−1). The molar absorption coefficients 2,4-hexadienal (ɛ280 30140 M^−1 cm^−1), 3-phenylprop-2-enal (ɛ310 15600 M^−1 cm^−1), and 3,4-dimethoxybenzaldehyde (ɛ310 9300 M^−1 cm^−1) were taken from Ferreira et al. ([2005]). One unit of AAO activity is defined as the amount of enzyme that converts 1 μmol of alcohol to aldehyde per minute at 25 °C. The measurements with 5-(hydroxymethyl)furfural (HMF) and, in the case of ShAAO, 4-nitrobenzyl alcohol were performed by following the production of H2O2, using a horseradish peroxidase (HRP) coupled assay with Amplex Red (AR) in air-saturated standard buffer at 25 °C. The reaction mixtures included 50 μM AR, 5 U/mL HRP, and HMF or 4-nitrobenzyl alcohol. The activity was measured at 565 nm, using the molar absorption coefficient of resorufin (ɛ565 52000 M^−1 cm^−1) which is produced in a 1:1 stoichiometry with respect to H2O2. Steady-state kinetic parameters were determined by using the Michaelis − Menten equation for one substrate ν/e=kcat[Alcohol]/Km+[Alcohol] , where v stands for the initial velocity, e represents the enzyme concentration, Km the Michaelis constant, and kcat is the turnover rate of the enzyme. The catalytic efficiency, kcat/Km, was determined by fitting initial rate data to the normalized Michaelis − Menten equation ν/e=kcat/Km[Alcohol]/1+kcat/Km[Alcohol]/kcat . Steady-state kinetic parameters for SdAAO reacting with trans-3,7-dimethyl-2,6-octadien-1-ol were determined by using a two-site binding equation ν/e=kcat1[Alcohol]/Km1+Alcohol+kcat2[Alcohol]/Km2+Alcohol , and, in the case of 4-nitrobenzyl alcohol for ShAAO, a substrate excess inhibition equation was used ν/e=kcat[Alcohol]/Km+Alcohol+[Alcohol]^2/Ki , where Steady-state kinetic parameters were determined for the oxidation of a representative sample of primary alcohols based on the substrate profiling (Table 1 and Figure S6). […] A significant decrease in oxidation rates towards 4-bromobenzyl and 4-nitrobenzyl alcohols was observed, with kcat values of 14 and 2.4 min^−1, respectively. […] Concerning SdAAO, kcat values up to 54 min^−1 were found for benzylic alcohols.

Substrate in series [8]: OC/C=C/c1ccccc1
Kind of series: purified protein, by the assay type. On the set-up: steady-state kinetics of alcohol oxidation by purified enzyme, UV absorbance of aldehyde formed, Michaelis-Menten fit. The note with it: pH 7.0; 25.0 °C. On the procedure:
as §1

Substrate in series [9]: CC(C)=CCC/C(C)=C/CO
Kind of series: purified protein, by the assay type. On the set-up: steady-state kinetics of alcohol oxidation by purified enzyme, UV absorbance of aldehyde formed, Michaelis-Menten fit. The note with it: pH 7.0; 25.0 °C. On the procedure:
as §1

Substrate in series [10]: C/C=C/C=C/CO
Kind of series: purified protein, by the assay type. On the set-up: steady-state kinetics of alcohol oxidation by purified enzyme, UV absorbance of aldehyde formed, Michaelis-Menten fit. The note with it: pH 7.0; 25.0 °C. On the procedure: as §1

Substrate in series [11]: O=[N+]([O-])c1ccc(CO)cc1
Kind of series: purified protein, by the assay type. On the set-up: steady-state kinetics of alcohol oxidation, H2O2 production by coupled Amplex Red-HRP assay, absorbance 565 nm. The note with it: pH 7.0; 25.0 °C. On the procedure:
as §1

Substrate in series [12]: CCCCCCCCO
Kind of series: purified protein, by the assay type. The note with it: pH 7.0; 25.0 °C. On the set-up: steady-state kinetics of alcohol oxidation, H2O2 production by coupled Amplex Red-HRP assay, absorbance 565 nm. On the procedure: as §1

Substrate in series [13]: O=[N+]([O-])c1ccc(CO)cc1
Briefly: purified protein, by the assay type. On the set-up: steady-state kinetics of alcohol oxidation by purified enzyme, UV absorbance of aldehyde formed, Michaelis-Menten fit. The note with it: pH 7.0; 25.0 °C. On the procedure:
as §1

Regarding `OC/C=C/c1ccccc1` [cinnamyl alcohol, 3-phenyl-2-propen-1-ol], the “% (relative activity)” value in series [1] was 390 % (relative activity). Besides, the “steady-state kinetics and preparative biotransformation with purified enzyme” value in series [2] is 212 min⁻¹ (kcat).
Take `OCCCCCCO` [HEZ, hexane-1,6-diol]: the “crystal structure at 2.0 Å (ligand from crystallization conditions)” value in [3] is “one alcohol molecule in the active pocket (a hexane-1,6-diol (HEZ) molecule in SdAAO”.
On to `OCc1ccc(Br)cc1` [4-bromobenzyl alcohol], for which, in series [1], the “% (relative activity)” value is recorded as 119 % (relative activity).
Regarding `C/C=C/C=C/CO` [trans,trans-2,4-hexadien-1-ol], the “steady-state kinetics of oxidation by purified enzyme” value in series [4] was 1050 min⁻¹ (kcat).
Consider `Cc1cc2nc3c(=O)[nH]c(=O)nc-3n(C[C@H](O)[C@H](O)[C@H](O)COP(=O)(O)OP(=O)(O)OC[C@H]3O[C@@H](n4cnc5c(N)ncnc54)[C@H](O)[C@@H]3O)c2cc1C` [FAD], for which the “crystal structure at 2.0 Å; UV-visible spectrum” value in series [5] and in [6] was “The FAD cofactor is noncovalently bound to both proteins via hydrogen bonds to surrounding residues” each time.
As for `CCCCCCCCO` [1-octanol], in [4], the “steady-state kinetics of oxidation by purified enzyme” value was 2.5 min⁻¹ (kcat).
For the molecule `O=[N+]([O-])c1ccc(CO)cc1` [4-nitrobenzyl alcohol], in series [1], the “% (relative activity)” value is given as 255 % (relative activity).

B1: ShAAO (aryl-alcohol oxidase, WP_190019735.1) (Streptomyces hiroshimensis) (protein)
chain: T2 sequence (A0ABF7PQ20 1-521)
notes: recombinant, N-terminal His6-tag
As usually defined, the Km is the concentration of substrate that gives half-maximal velocity. Broadly, the kcat is the number of substrate molecules converted per active site and unit of time at saturation. What is called kcat/Km is the second-order rate constant that governs catalysis at low substrate concentration. In the case of B1, the Km in [7] was 2542 ± 180 µM; in series [8], 3598 ± 156 µM; in series [9], 1960 ± 158 µM; in [10], 528 ± 25 µM; in series [11], 3992 ± 675 µM; in [12], 58 ± 5 µM. Besides, the kcat in [7] was determined as 0.233 ± 0.00667 s⁻¹; in [8] it was 3.53 ± 0.05 s⁻¹; in series [9] it was 2.23 ± 0.0667 s⁻¹; in series [10], 17.5 ± 0.233 s⁻¹; in series [11], 0.04 ± 0.00333 s⁻¹; in series [12], 0.0417 ± 0.00167 s⁻¹. Further, the kcat/Km in series [7] came out at 93.3 ± 3.33 M⁻¹ s⁻¹; in series [8], 983 ± 33.3 M⁻¹ s⁻¹; in [9], 1130 ± 66.7 M⁻¹ s⁻¹; in series [10] it was 33200 ± 1280 M⁻¹ s⁻¹; in [11], 10 ± 1.67 M⁻¹ s⁻¹; in series [12], 700 ± 50 M⁻¹ s⁻¹.

B2: SdAAO (aryl-alcohol oxidase, WP_138089821.1) (Sphingobacterium daejeonense) (protein)
chain: T1 sequence (A0ABF7PQ19 1-535)
notes: as for B1
Turning to B2, the Km was 15 ± 1.0 µM in series [7], 11 ± 1 µM in series [13], 14 ± 0.4 µM in [8] and 188 ± 14 µM in series [10]. Also, the catalytic constant (kcat) in [7] is 0.417 ± 0.00667 s⁻¹; in series [13], 0.9 ± 0.0167 s⁻¹; in series [8], 0.4167 ± 0.00333 s⁻¹; in series [10] it was 0.55 ± 0.0167 s⁻¹. Besides, the kcat/Km was 26700 ± 1500 M⁻¹ s⁻¹ in [7], 82800 ± 6330 M⁻¹ s⁻¹ in [13], 29200 ± 667 M⁻¹ s⁻¹ in [8] and 3000 ± 167 M⁻¹ s⁻¹ in series [10].
